Tested on: platelet adhesion to brain endothelium
Assay: Platelet and leukocyte immunohistochemistry after intrastriatal cytokine microinjection (rat)
Format: in vivo
Conditions: versus vehicle, TNF at 24 h
Protocol: Rat-recombinant TNF and IL-1[…] were obtained from the National Institute for Biological Standards and Controls (NIBSC, Potters Bar, UK). Rat-recombinant LT-[…] and mouse-recombinant TNF was purchased from R&D Systems (Abingdon, UK). The cytokines were dissolved in endotoxin-free saline (vehicle). The cytokines contained a maximum of 100 IU endotoxin/mg cytokine (corresponding to 10 ppm by weight), which, in view of previous studies, was considered negligible in the context of these experiments.
12-week-old male Wistar rats or 8-week-old NMRI mice were used for the injection of the recombinant cytokines (Charles River, Margate, UK). Both rats and mice responded to the injection of cytokines in an identical manner. […]
Frozen, 10 μm-thick serial coronal sections were cut from tissue blocks. […] The numbers of positive cells present in the brain were quantitated. For each tissue section, 4 representative fields were chosen and the average number of positive cells was calculated and expressed as number of cells per mm^2.
The p55 mouse anti-rat platelet GPIIa monoclonal antibody was a kind gift from Kirin Brewery Co Ltd, Takasaki, Japan. The numbers of platelet positive elements present in the brain were quantitated. For each tissue section, 6 representative fields were chosen and the average number of positive elements was calculated and expressed as number of discrete elements per mm^2.

B1: IL-1β: rat-recombinant interleukin-1β microinjected into the striatum (protein, UniProt Q63264 117-268, looked up)
Interleukin-1 beta: VPIRQLHCRLRDEQQKCLVLSDPCELKALHLNGQNISQQVVFSMSFVQGETSNDKIPVALGLKGLNLYLSCVMKDGTPTLQLESVDPKQYPKKKMEKRFVFNKIEVKTKVEFESAQFPNWYISTSQAEHRPVFLGNSNGRDIVDFTMEPVSS
For B1, the “number of platelet positive elements” value was “did not increase”.

B2: LT-α: rat-recombinant lymphotoxin-α microinjected into the striatum (protein, UniProt Q06332 34-202, looked up)
Lymphotoxin-alpha: LSGVRFSASRTAHQPPQKHLTHGLLKPAAHLVGYPSKQNSLLWRANTDRAFLRHGFSLNNNSLLIPTSGLYFVYSQVVFSGESCSPRAIPTPIYLAHEVQLFSSQYPFHVPLLSAQKSVYPGLQGPWVRSMYQGAVFLLSKGDQLSTHTDGISHLHFSPSTVFFGAFAL
With B2 the “number of platelet positive elements” value was “did not increase”.

— patent US20090317330A2, “DIAGNOSIS AND TREATMENT OF DISEASES INVOLVING PLATELET ACTIVATION” (Baker IDI Heart and Diabetes Institute Holdings Limited, priority 2007, published 2009)
